Measured values reported in patent publication US20140363428A1 (Chugai, published 2014).

Molecular target: T1, soluble human FcRn (human, UniProt P55899 24-297; P61769 21-119)
T1 construct: Heterodimer of FcRn alpha chain and beta2-microglobulin; also called hFcRn
Assay: SPR (Biacore T100), antibody captured by protein L, hFcRn as analyte, pH 7.0, 25 C;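 further: KD calculated from fitted association and dissociation rate constants of the sensorgrams, protein L amine-coupled to the sensor chip, sodium phosphate running buffer with NaCl and Tween20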

Binder	Kd
IgG1-F1293 (antibody, EU numbering; copies: 2 + 2) heavy: QVQLQESGPGLVKPSETLSLTCAVSGHSISHDHAWSWVRQPPGEGLEWIGFISYSGITNYNPSLQGRVTISRDNSKNTLYLQMNSLRAEDTAVYYCARSLARTTAMDYWGEGTLVTVSSASTKGPSVFPLAPSSKSTSGGTAALGCLVKDYFPEPVTVSWNSGALTSGVHTFPAVLQSSGLYSLSSVVTVPSSSLGTQTYICNVNHKPSNTKVDKKVEPKSCDKTHTCPPCPAPELRGGPKVFLFPPKPKDTLYISREPEVTCVVVDVSHEDPEVKFNWYVDGVEVHNAKTKPREEQYNSTYRVVSVLTVLHQDWLNGKEYKCKVSNKALPAPIEKTISKAKGQPREPQVYTLPPSRDELTKNQVSLTCLVKGFYPSDIAVEWESNGQPENNYKTTPPVLDSDGSFFLYSKLTVDKSRWQQGNVFSCSVMHEALHYHYTRKELSLSP light: not shown	160 nM
IgG1-F1291 (antibody, EU numbering; copies: 2 + 2) heavy: QVQLQESGPGLVKPSETLSLTCAVSGHSISHDHAWSWVRQPPGEGLEWIGFISYSGITNYNPSLQGRVTISRDNSKNTLYLQMNSLRAEDTAVYYCARSLARTTAMDYWGEGTLVTVSSASTKGPSVFPLAPSSKSTSGGTAALGCLVKDYFPEPVTVSWNSGALTSGVHTFPAVLQSSGLYSLSSVVTVPSSSLGTQTYICNVNHKPSNTKVDKKVEPKSCDKTHTCPPCPAPELRGGPKVFLFPPKPKDTLYISRTPEVTCVVVDVSHEDPEVKFNWYVDGVEVHNAKTKPREEQYNSTYRVVSVLTVLHQDWLNGKEYKCKVSNKALPAPIEKTISKAKGQPREPQVYTLPPSRDELTKNQVSLTCLVKGFYPSDIAVEWESNGQPENNYKTTPPVLDSDGSFFLYSKLTVDKSRWQQGNVFSCSVMHEALDYHVTQKSLSLSP light: not shown	150 nM
IgG1-F1286 (antibody, EU numbering; copies: 2 + 2) heavy: QVQLQESGPGLVKPSETLSLTCAVSGHSISHDHAWSWVRQPPGEGLEWIGFISYSGITNYNPSLQGRVTISRDNSKNTLYLQMNSLRAEDTAVYYCARSLARTTAMDYWGEGTLVTVSSASTKGPSVFPLAPSSKSTSGGTAALGCLVKDYFPEPVTVSWNSGALTSGVHTFPAVLQSSGLYSLSSVVTVPSSSLGTQTYICNVNHKPSNTKVDKKVEPKSCDKTHTCPPCPAPELRGGPKVFLFPPKPKDTLYITRTPEVTCVVVDVSHEDPEVKFNWYVDGVEVHNAKTKPREEQYNSTYRVVSVLTVLHQDWLNGKEYKCKVSNKALPAPIEKTISKAKGQPREPQVYTLPPSRDELTKNQVSLTCLVKGFYPSDIAVEWESNGQPENNYKTTPPVLDSDGSFFLYSKLTVDKSRWQQGNVFSCSVMHEALDYHVTRKELSLSP light: not shown	160 nM
IgG1-F1292 (antibody, EU numbering; copies: 2 + 2) heavy: QVQLQESGPGLVKPSETLSLTCAVSGHSISHDHAWSWVRQPPGEGLEWIGFISYSGITNYNPSLQGRVTISRDNSKNTLYLQMNSLRAEDTAVYYCARSLARTTAMDYWGEGTLVTVSSASTKGPSVFPLAPSSKSTSGGTAALGCLVKDYFPEPVTVSWNSGALTSGVHTFPAVLQSSGLYSLSSVVTVPSSSLGTQTYICNVNHKPSNTKVDKKVEPKSCDKTHTCPPCPAPELRGGPKVFLFPPKPKDTLMISRTPEVTCVVVDVSHEDPEVKFNWYVDGVEVHNAKTKPREEQYNSTYRVVSVLTVLHQDWLNGKEYKCKVSNKALPAPIEKTISKAKGQPREPQVYTLPPSRDELTKNQVSLTCLVKGFYPSDIAVEWESNGQPENNYKTTPPVLDSDGSFFLYSKLTVDKSRWQQGNVFSCSVMHEALDWHVTRKELSLSP light: not shown	420 nM
IgG1-F1296 (antibody, EU numbering; copies: 2 + 2) heavy: QVQLQESGPGLVKPSETLSLTCAVSGHSISHDHAWSWVRQPPGEGLEWIGFISYSGITNYNPSLQGRVTISRDNSKNTLYLQMNSLRAEDTAVYYCARSLARTTAMDYWGEGTLVTVSSASTKGPSVFPLAPSSKSTSGGTAALGCLVKDYFPEPVTVSWNSGALTSGVHTFPAVLQSSGLYSLSSVVTVPSSSLGTQTYICNVNHKPSNTKVDKKVEPKSCDKTHTCPPCPAPELRGGPKVFLFPPKPKDTLYISREPEVTCVVVDVSHEDPEVKFNWYVDGVEVHNAKTKPREEQYNSTYRVVSVLTVLHQDWLNGKEYKCKVSNKALPAPIEKTISKAKGQPREPQVYTLPPSRDELTKNQVSLTCLVKGFYPSDIAVEWESNGQPENNYKTTPPVLDSDGSFFLYSKLTVDKSRWQQGNVFSCSVMHEALDYHYTRKELSLSP light: not shown	230 nM

Other lines, results leading:

Kd	Binder
110 nM	IgG1-F1284 (antibody, EU numbering; copies: 2 + 2) heavy: QVQLQESGPGLVKPSETLSLTCAVSGHSISHDHAWSWVRQPPGEGLEWIGFISYSGITNYNPSLQGRVTISRDNSKNTLYLQMNSLRAEDTAVYYCARSLARTTAMDYWGEGTLVTVSSASTKGPSVFPLAPSSKSTSGGTAALGCLVKDYFPEPVTVSWNSGALTSGVHTFPAVLQSSGLYSLSSVVTVPSSSLGTQTYICNVNHKPSNTKVDKKVEPKSCDKTHTCPPCPAPELRGGPKVFLFPPKPKDTLYISRNPEVTCVVVDVSHEDPEVKFNWYVDGVEVHNAKTKPREEQYNSTYRVVSVLTVLHQDWLNGKEYKCKVSNKALPAPIEKTISKAKGQPREPQVYTLPPSRDELTKNQVSLTCLVKGFYPSDIAVEWESNGQPENNYKTTPPVLDSDGSFFLYSKLTVDKSRWQQGNVFSCSVMHEALDYHVTKKDLSLSP light: not shown
110 nM	IgG1-F1290 (antibody, EU numbering; copies: 2 + 2) heavy: QVQLQESGPGLVKPSETLSLTCAVSGHSISHDHAWSWVRQPPGEGLEWIGFISYSGITNYNPSLQGRVTISRDNSKNTLYLQMNSLRAEDTAVYYCARSLARTTAMDYWGEGTLVTVSSASTKGPSVFPLAPSSKSTSGGTAALGCLVKDYFPEPVTVSWNSGALTSGVHTFPAVLQSSGLYSLSSVVTVPSSSLGTQTYICNVNHKPSNTKVDKKVEPKSCDKTHTCPPCPAPELRGGPKVFLFPPKPKDTLYISREPEVTCVVVDVSHEDPEVKFNWYVDGVEVHNAKTKPREEQYNSTYRVVSVLTVLHQDWLNGKEYKCKVSNKALPAPIEKTISKAKGQPREPQVYTLPPSRDELTKNQVSLTCLVKGFYPSDIAVEWESNGQPENNYKTTPPVLDSDGSFFLYSKLTVDKSRWQQGNVFSCSVMHEALDYHVTKKDLSLSP light: not shown
79 nM	IgG1-F1288 (antibody, EU numbering; copies: 2 + 2) heavy: QVQLQESGPGLVKPSETLSLTCAVSGHSISHDHAWSWVRQPPGEGLEWIGFISYSGITNYNPSLQGRVTISRDNSKNTLYLQMNSLRAEDTAVYYCARSLARTTAMDYWGEGTLVTVSSASTKGPSVFPLAPSSKSTSGGTAALGCLVKDYFPEPVTVSWNSGALTSGVHTFPAVLQSSGLYSLSSVVTVPSSSLGTQTYICNVNHKPSNTKVDKKVEPKSCDKTHTCPPCPAPELRGGPKVFLFPPKPKDTLYISREPEVTCVVVDVSHEDPEVKFNWYVDGVEVHNAKTKPREEQYNSTYRVVSVLTVLHQDWLNGKEYKCKVSNKALPAPIEKTISKAKGQPREPQVYTLPPSRDELTKNQVSLTCLVKGFYPSDIAVEWESNGQPENNYKTTPPVLDSDGSFFLYSKLTVDKSRWQQGNVFSCSVMHEALHYHVTKKDLSLSP light: not shown
150 nM	IgG1-F1298 (antibody, EU numbering; copies: 2 + 2) heavy: QVQLQESGPGLVKPSETLSLTCAVSGHSISHDHAWSWVRQPPGEGLEWIGFISYSGITNYNPSLQGRVTISRDNSKNTLYLQMNSLRAEDTAVYYCARSLARTTAMDYWGEGTLVTVSSASTKGPSVFPLAPSSKSTSGGTAALGCLVKDYFPEPVTVSWNSGALTSGVHTFPAVLQSSGLYSLSSVVTVPSSSLGTQTYICNVNHKPSNTKVDKKVEPKSCDKTHTCPPCPAPELRGGPKVFLFPPKPKDTLYISREPEVTCVVVDVSHEDPEVKFNWYVDGVEVHNAKTKPREEQYNSTYRVVSVLTVLHQDWLNGKEYKCKVSNKALPAPIEKTISKAKGQPREPQVYTLPPSRDELTKNQVSLTCLVKGFYPSDIAVEWESNGQPENNYKTTPPVLDSDGSFFLYSKLTVDKSRWQQGNVFSCSVMHEALDYHFTRKELSLSP light: not shown
98 nM	IgG1-F1295 (antibody, EU numbering; copies: 2 + 2) heavy: QVQLQESGPGLVKPSETLSLTCAVSGHSISHDHAWSWVRQPPGEGLEWIGFISYSGITNYNPSLQGRVTISRDNSKNTLYLQMNSLRAEDTAVYYCARSLARTTAMDYWGEGTLVTVSSASTKGPSVFPLAPSSKSTSGGTAALGCLVKDYFPEPVTVSWNSGALTSGVHTFPAVLQSSGLYSLSSVVTVPSSSLGTQTYICNVNHKPSNTKVDKKVEPKSCDKTHTCPPCPAPELRGGPKVFLFPPKPKDTLYISREPEVTCVVVDVSHEDPEVKFNWYVDGVEVHNAKTKPREEQYNSTYRVVSVLTVLHQDWLNGKEYKCKVSNKALPAPIEKTISKAKGQPREPQVYTLPPSRDELTKNQVSLTCLVKGFYPSDIAVEWESNGQPENNYKTTPPVLDSDGSFFLYSKLTVDKSRWQQGNVFSCSVMHEALHYHFTRKELSLSP light: not shown
130 nM	IgG1-F1289 (antibody, EU numbering; copies: 2 + 2) heavy: QVQLQESGPGLVKPSETLSLTCAVSGHSISHDHAWSWVRQPPGEGLEWIGFISYSGITNYNPSLQGRVTISRDNSKNTLYLQMNSLRAEDTAVYYCARSLARTTAMDYWGEGTLVTVSSASTKGPSVFPLAPSSKSTSGGTAALGCLVKDYFPEPVTVSWNSGALTSGVHTFPAVLQSSGLYSLSSVVTVPSSSLGTQTYICNVNHKPSNTKVDKKVEPKSCDKTHTCPPCPAPELRGGPKVFLFPPKPKDTLYISREPEVTCVVVDVSHEDPEVKFNWYVDGVEVHNAKTKPREEQYNSTYRVVSVLTVLHQDWLNGKEYKCKVSNKALPAPIEKTISKAKGQPREPQVYTLPPSRDELTKNQVSLTCLVKGFYPSDIAVEWESNGQPENNYKTTPPVLDSDGSFFLYSKLTVDKSRWQQGNVFSCSVMHEALDYHVTRKELSLSP light: not shown
94 nM	IgG1-F1285 (antibody, EU numbering; copies: 2 + 2) heavy: QVQLQESGPGLVKPSETLSLTCAVSGHSISHDHAWSWVRQPPGEGLEWIGFISYSGITNYNPSLQGRVTISRDNSKNTLYLQMNSLRAEDTAVYYCARSLARTTAMDYWGEGTLVTVSSASTKGPSVFPLAPSSKSTSGGTAALGCLVKDYFPEPVTVSWNSGALTSGVHTFPAVLQSSGLYSLSSVVTVPSSSLGTQTYICNVNHKPSNTKVDKKVEPKSCDKTHTCPPCPAPELRGGPKVFLFPPKPKDTLYITRTPEVTCVVVDVSHEDPEVKFNWYVDGVEVHNAKTKPREEQYNSTYRVVSVLTVLHQDWLNGKEYKCKVSNKALPAPIEKTISKAKGQPREPQVYTLPPSRDELTKNQVSLTCLVKGFYPSDIAVEWESNGQPENNYKTTPPVLDSDGSFFLYSKLTVDKSRWQQGNVFSCSVMHEALHYHVTKKDLSLSP light: not shown
